Laboratory results taken from patent US20230059341A1 (TESARO, published 2023).
Like-named read-outs stand apart in the source and are kept apart here. Each block holds one binder with its values, some of them ahead of it.

Columns and labels:
[1] = molecular target: T1, human PD-1 on PD-1 effector cells (Jurkat T cells, Promega #J1155) (human, UniProt Q15116 25-288); assay: cell-based or functional assay
[2] = molecular target: T2, Neonatal Fc Receptor (FcRn) (UniProt P55899 24-297; P61769 21-119, limits assumed); assay: FcRn binding assay, BIACORE (SPR)
[3] = molecular target: T3, PD-1 protein constitutively expressed on engineered CHO K1 cells (UniProt Q15116 25-288, limits assumed); assay: MSD potency assay: competitive binding on CHO K1 cells expressing PD-1, inhibition of PD-L1-mFc binding, ECL; percent of reference material
T3 construct: whole, on cells; also called programmed cell death protein 1
T3 sequence (Q15116 25-288 limits assumed, change not shown): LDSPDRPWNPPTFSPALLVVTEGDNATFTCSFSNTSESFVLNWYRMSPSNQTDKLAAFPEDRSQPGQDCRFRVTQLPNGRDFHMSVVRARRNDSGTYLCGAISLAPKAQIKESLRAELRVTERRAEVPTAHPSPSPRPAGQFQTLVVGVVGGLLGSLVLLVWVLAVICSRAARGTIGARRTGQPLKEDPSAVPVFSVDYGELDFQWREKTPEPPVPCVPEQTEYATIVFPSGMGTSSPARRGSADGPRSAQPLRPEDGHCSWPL
Experimental: (§1) The Meso Scale Discovery (MSD) potency assay employs engineered CHO K1 cells constitutively expressing the PD-1 protein. […] The readout is measured using a specific detection antibody mixture that releases an electrochemiluminescence (ECL) signal that can be quantified.

[4] = molecular target: T2, Neonatal Fc Receptor (FcRn); assay: BIACORE (SPR), antibody immobilized on sensor chip, FcRn injected as analyte
Experimental: FcRn binding was assessed via BIACORE analysis. […] Various concentrations of analyte (FcRn) were injected for analysis of the association and dissociation properties.

[5] = molecular target: T1, human PD-1 on PD-1 effector cells …; assay: cell-based or functional assay; remark: listed apart in the source
[6] = molecular target: T2, Neonatal Fc Receptor (FcRn); assay: FcRn binding assay, BIACORE (SPR); remark: listed apart in the source
[7] = molecular target: T3, PD-1 protein constitutively expressed …; assay: MSD potency assay: competitive binding on CHO K1 cells expressing PD-1, inhibition of PD-L1-mFc binding, ECL; percent of reference material; remark: listed apart in the source
Experimental: as §1

[8] = molecular target: T2, Neonatal Fc Receptor (FcRn); assay: FcRn binding assay, BIACORE (SPR); remark: listed apart in the source
[9] = molecular target: T1, human PD-1 on PD-1 effector cells …; assay: cell-based or functional assay; remark: listed apart in the source
[10] = molecular target: T2, Neonatal Fc Receptor (FcRn); assay: FcRn binding assay, BIACORE (SPR); remark: listed apart in the source
[11] = molecular target: T3, PD-1 protein constitutively expressed …; assay: MSD potency assay: competitive binding on CHO K1 cells expressing PD-1, inhibition of PD-L1-mFc binding, ECL; percent of reference material; remark: listed apart in the source
Experimental: as §1

T1 sequence (Q15116 25-288): as the sequence (Q15116 25-288 limits assumed, change not shown) above

- Relative Potency, Cell-Based Bioassay [1]: 47%
- Kd [2]: 12.4 µM
- Relative Potency, MSD Binding [3]: 74%
B1: Dostarlimab, H2O2 treated, 25° C., 2 weeks (antibody, human IgG4 S228P, kappa)
heavy: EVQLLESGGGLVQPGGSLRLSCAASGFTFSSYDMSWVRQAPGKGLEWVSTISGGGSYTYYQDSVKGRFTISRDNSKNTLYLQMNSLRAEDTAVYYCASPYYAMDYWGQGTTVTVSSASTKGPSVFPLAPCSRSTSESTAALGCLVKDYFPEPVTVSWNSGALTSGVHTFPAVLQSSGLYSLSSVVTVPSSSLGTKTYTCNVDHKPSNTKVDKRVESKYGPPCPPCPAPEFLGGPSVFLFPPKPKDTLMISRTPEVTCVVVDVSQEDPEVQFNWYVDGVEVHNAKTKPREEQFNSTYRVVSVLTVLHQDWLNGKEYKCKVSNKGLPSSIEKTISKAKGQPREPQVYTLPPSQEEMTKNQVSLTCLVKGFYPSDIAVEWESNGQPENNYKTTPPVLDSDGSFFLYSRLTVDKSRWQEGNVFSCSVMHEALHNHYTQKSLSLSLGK
light: DIQLTQSPSFLSAYVGDRVTITCKASQDVGTAVAWYQQKPGKAPKLLIYWASTLHTGVPSRFSGSGSGTEFTLTISSLQPEDFATYYCQHYSSYPWTFGQGTKLEIKRTVAAPSVFIFPPSDEQLKSGTASVVCLLNNFYPREAKVQWKVDNALQSGNSQESVTEQDSKDSTYSLSSTLTLSKADYEKHKVYACEVTHQGLSSPVTKSFNRGEC
modifications: percent of population: Trp 50 oxidation 1.3; Asn 137 deamidation 1.3; percent of population: Met 34 oxidation 28.8; Met 83 oxidation 1.1; Met 103 oxidation 86.1; Met 248 oxidation 99.6; Asn 311 deamidation 7.4; Met 354 oxidation 99.8; Asn 380 deamidation 10.5; Asn 385 deamidation 1.9; Met 424 oxidation 98.1; Lys 443 clipped 97.7
notes: 0.1% (v:v) H2O2; also called H2O2, 25° C., 2 weeks

- Relative Potency, Cell-Based Bioassay [5]: 14%
- Kd [6]: 8.33 µM
- Relative Potency, MSD Binding [7]: 57%
B4: Dostarlimab, AAPH treated, 40° C., 3 days (antibody, human IgG4 S228P, kappa)
heavy: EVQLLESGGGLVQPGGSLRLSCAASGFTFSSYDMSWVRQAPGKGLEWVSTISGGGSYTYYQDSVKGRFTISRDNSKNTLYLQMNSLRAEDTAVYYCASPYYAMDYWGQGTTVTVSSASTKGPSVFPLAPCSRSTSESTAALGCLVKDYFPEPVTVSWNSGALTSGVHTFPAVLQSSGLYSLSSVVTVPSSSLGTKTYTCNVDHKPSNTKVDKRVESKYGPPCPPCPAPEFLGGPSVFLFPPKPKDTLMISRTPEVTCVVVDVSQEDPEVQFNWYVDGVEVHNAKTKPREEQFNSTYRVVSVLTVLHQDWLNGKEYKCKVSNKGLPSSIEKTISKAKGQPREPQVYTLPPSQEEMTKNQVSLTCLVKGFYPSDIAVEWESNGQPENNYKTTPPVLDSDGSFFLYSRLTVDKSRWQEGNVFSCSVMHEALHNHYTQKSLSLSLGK
light: DIQLTQSPSFLSAYVGDRVTITCKASQDVGTAVAWYQQKPGKAPKLLIYWASTLHTGVPSRFSGSGSGTEFTLTISSLQPEDFATYYCQHYSSYPWTFGQGTKLEIKRTVAAPSVFIFPPSDEQLKSGTASVVCLLNNFYPREAKVQWKVDNALQSGNSQESVTEQDSKDSTYSLSSTLTLSKADYEKHKVYACEVTHQGLSSPVTKSFNRGEC
modifications: percent of population: Trp 50 oxidation 74.2; percent of population: Met 103 oxidation 7.0; Met 248 oxidation 88.4; Asp 261/266/276 isomerization 1.0; Asn 311 deamidation 6.6; Met 354 oxidation 44.8; Asn 380 deamidation 9.6; Asn 385 deamidation 1.2; Met 424 oxidation 78.2; Lys 443 clipped 97.7
notes: 5 mM AAPH; HMW 11.8%; also called AAPH, 40° C., 3 days

- Kd [8]: 2.26 µM
B6: Dostarlimab, base degraded, T0 (exposed to pH 9.0, no incubation) (antibody, human IgG4 S228P, kappa)
heavy: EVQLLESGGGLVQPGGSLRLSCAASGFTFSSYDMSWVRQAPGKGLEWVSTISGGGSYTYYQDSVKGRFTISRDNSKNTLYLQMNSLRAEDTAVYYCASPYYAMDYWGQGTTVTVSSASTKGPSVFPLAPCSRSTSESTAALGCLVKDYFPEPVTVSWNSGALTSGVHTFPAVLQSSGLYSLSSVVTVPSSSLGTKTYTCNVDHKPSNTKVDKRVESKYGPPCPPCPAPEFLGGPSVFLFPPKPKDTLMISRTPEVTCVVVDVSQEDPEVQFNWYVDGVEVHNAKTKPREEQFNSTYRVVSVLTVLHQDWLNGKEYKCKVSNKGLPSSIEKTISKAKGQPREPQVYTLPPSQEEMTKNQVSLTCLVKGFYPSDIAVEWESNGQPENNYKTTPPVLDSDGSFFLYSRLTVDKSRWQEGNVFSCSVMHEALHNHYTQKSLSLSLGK
light: DIQLTQSPSFLSAYVGDRVTITCKASQDVGTAVAWYQQKPGKAPKLLIYWASTLHTGVPSRFSGSGSGTEFTLTISSLQPEDFATYYCQHYSSYPWTFGQGTKLEIKRTVAAPSVFIFPPSDEQLKSGTASVVCLLNNFYPREAKVQWKVDNALQSGNSQESVTEQDSKDSTYSLSSTLTLSKADYEKHKVYACEVTHQGLSSPVTKSFNRGEC
modifications: percent of population: Asn 137 deamidation 1.3; percent of population: Met 248 oxidation 2.8; Asn 311 deamidation 6.8; Asn 380 deamidation 10.8; Asn 385 deamidation 1.8; Lys 443 clipped 96.9
notes: Mixture; HMW 8.1%, acidic peaks 27.2%

- Relative Potency, Cell-Based Bioassay [9]: 94%
- Kd [10]: 2.25 µM
- Relative Potency, MSD Binding [11]: 88%
B7: Dostarlimab, thermally degraded, 40° C., 3 weeks (antibody, human IgG4 S228P, kappa)
heavy: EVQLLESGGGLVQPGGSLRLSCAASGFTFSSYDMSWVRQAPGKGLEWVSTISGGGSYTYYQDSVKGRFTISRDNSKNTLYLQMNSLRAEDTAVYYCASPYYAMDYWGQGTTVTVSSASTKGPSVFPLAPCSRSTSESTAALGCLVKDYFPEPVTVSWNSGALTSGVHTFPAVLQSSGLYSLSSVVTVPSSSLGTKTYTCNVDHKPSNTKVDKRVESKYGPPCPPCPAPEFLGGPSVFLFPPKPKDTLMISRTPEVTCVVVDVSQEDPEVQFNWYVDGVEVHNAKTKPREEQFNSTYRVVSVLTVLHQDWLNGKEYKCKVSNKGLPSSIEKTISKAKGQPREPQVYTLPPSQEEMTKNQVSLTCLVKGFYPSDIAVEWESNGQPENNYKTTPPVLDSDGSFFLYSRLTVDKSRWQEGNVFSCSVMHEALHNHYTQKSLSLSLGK
light: DIQLTQSPSFLSAYVGDRVTITCKASQDVGTAVAWYQQKPGKAPKLLIYWASTLHTGVPSRFSGSGSGTEFTLTISSLQPEDFATYYCQHYSSYPWTFGQGTKLEIKRTVAAPSVFIFPPSDEQLKSGTASVVCLLNNFYPREAKVQWKVDNALQSGNSQESVTEQDSKDSTYSLSSTLTLSKADYEKHKVYACEVTHQGLSSPVTKSFNRGEC
modifications: percent of population: Asp 151/167 isomerization 1.1; percent of population: Met 248 oxidation 5.4; Asp 261/266/276 isomerization 2.8; Asn 311 deamidation 6.5; Met 354 oxidation 1.9; Asn 380 deamidation 10.0; Asn 385 deamidation 2.1; Met 424 oxidation 1.7; Asn 430 deamidation 1.2; Lys 443 clipped 97.8
notes: Mixture; HMW 1.4%, acidic peaks 33.8%

Continued, binder first:

B2: Dostarlimab reference material (antibody, human IgG4 S228P, kappa)
heavy: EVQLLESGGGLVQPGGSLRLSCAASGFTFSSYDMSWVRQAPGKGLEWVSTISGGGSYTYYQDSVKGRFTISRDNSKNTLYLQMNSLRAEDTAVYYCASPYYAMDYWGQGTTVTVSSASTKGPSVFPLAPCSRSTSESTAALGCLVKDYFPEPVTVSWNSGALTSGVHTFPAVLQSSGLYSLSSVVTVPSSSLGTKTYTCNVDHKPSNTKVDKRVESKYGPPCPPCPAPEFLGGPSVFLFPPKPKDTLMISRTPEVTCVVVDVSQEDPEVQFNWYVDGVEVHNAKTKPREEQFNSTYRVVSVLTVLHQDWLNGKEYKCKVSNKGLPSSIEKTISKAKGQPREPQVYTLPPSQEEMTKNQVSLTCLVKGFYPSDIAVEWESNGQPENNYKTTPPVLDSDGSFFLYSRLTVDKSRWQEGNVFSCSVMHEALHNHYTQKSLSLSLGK
light: DIQLTQSPSFLSAYVGDRVTITCKASQDVGTAVAWYQQKPGKAPKLLIYWASTLHTGVPSRFSGSGSGTEFTLTISSLQPEDFATYYCQHYSSYPWTFGQGTKLEIKRTVAAPSVFIFPPSDEQLKSGTASVVCLLNNFYPREAKVQWKVDNALQSGNSQESVTEQDSKDSTYSLSSTLTLSKADYEKHKVYACEVTHQGLSSPVTKSFNRGEC
- Kd [4]: 1.69 µM

B3: Dostarlimab, AAPH treated, 40° C., 1 day (antibody, human IgG4 S228P, kappa)
heavy: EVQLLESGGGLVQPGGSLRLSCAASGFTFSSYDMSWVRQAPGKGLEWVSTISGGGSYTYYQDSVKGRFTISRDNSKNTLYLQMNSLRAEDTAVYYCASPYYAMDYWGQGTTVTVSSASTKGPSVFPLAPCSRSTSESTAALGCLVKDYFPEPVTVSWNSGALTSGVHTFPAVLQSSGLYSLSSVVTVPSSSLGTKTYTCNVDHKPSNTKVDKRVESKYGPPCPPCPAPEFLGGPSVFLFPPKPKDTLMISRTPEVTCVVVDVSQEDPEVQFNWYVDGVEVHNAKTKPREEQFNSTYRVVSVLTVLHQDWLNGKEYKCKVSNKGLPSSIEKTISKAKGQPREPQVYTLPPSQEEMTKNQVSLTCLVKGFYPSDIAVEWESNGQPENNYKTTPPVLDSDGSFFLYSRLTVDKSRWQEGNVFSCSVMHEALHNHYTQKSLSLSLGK
light: DIQLTQSPSFLSAYVGDRVTITCKASQDVGTAVAWYQQKPGKAPKLLIYWASTLHTGVPSRFSGSGSGTEFTLTISSLQPEDFATYYCQHYSSYPWTFGQGTKLEIKRTVAAPSVFIFPPSDEQLKSGTASVVCLLNNFYPREAKVQWKVDNALQSGNSQESVTEQDSKDSTYSLSSTLTLSKADYEKHKVYACEVTHQGLSSPVTKSFNRGEC
modifications: percent of population: Trp 50 oxidation 38.9; Asn 137 deamidation 1.2; percent of population: Met 103 oxidation 2.5; Met 248 oxidation 47.7; Asn 311 deamidation 6.5; Met 354 oxidation 8.2; Asn 380 deamidation 8.6; Asn 385 deamidation 1.3; Met 424 oxidation 26.2; Asn 430 deamidation 1.1; Lys 443 clipped 96.7
notes: 5 mM AAPH; HMW 4.9%; also called AAPH, 40° C., 1 day; AAPH Day 1
- Relative Potency, Cell-Based Bioassay [5]: 44%
- Kd [6]: 2.34 µM
- Relative Potency, MSD Binding [7]: 76%

B5: Dostarlimab (antibody, human IgG4 S228P, kappa)
heavy: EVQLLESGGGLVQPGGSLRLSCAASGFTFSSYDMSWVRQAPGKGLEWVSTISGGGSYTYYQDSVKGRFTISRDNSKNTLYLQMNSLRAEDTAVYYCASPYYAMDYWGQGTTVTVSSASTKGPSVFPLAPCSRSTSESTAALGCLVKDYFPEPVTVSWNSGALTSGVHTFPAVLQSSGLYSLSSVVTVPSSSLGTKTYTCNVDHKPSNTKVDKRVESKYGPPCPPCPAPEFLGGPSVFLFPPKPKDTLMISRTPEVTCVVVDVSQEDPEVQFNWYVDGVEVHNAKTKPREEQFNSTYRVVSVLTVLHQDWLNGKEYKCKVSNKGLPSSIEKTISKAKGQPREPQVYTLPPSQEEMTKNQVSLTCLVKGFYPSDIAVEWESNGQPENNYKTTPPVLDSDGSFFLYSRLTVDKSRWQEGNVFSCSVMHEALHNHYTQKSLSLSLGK
light: DIQLTQSPSFLSAYVGDRVTITCKASQDVGTAVAWYQQKPGKAPKLLIYWASTLHTGVPSRFSGSGSGTEFTLTISSLQPEDFATYYCQHYSSYPWTFGQGTKLEIKRTVAAPSVFIFPPSDEQLKSGTASVVCLLNNFYPREAKVQWKVDNALQSGNSQESVTEQDSKDSTYSLSSTLTLSKADYEKHKVYACEVTHQGLSSPVTKSFNRGEC
modifications: N-glycan at Asn 293 (99% occupancy)
notes: also called dostarlimab drug substance (DS); anti-PD-1 antibody
- Kd [4]: 1.75 µM
